From patent US20140322218A1 (Amgen, published 2014) come the findings set out here.

Holding throughout (assay): FACS, transfected 293T
A general note: In flow cytometry, cells or beads pass a laser one at a time.

Test [1] deals with T1, rhCDH19(1-43)::FLAG::rhCDH19(44-772), on 293T cells (rhesus macaque, UniProt Q9H159 44-772 (human entry)).
T1 construct: Entry holds leader (1-43), Flag tag and CDH19 part; leader left out; also called Rh EC1-5
T1 chain: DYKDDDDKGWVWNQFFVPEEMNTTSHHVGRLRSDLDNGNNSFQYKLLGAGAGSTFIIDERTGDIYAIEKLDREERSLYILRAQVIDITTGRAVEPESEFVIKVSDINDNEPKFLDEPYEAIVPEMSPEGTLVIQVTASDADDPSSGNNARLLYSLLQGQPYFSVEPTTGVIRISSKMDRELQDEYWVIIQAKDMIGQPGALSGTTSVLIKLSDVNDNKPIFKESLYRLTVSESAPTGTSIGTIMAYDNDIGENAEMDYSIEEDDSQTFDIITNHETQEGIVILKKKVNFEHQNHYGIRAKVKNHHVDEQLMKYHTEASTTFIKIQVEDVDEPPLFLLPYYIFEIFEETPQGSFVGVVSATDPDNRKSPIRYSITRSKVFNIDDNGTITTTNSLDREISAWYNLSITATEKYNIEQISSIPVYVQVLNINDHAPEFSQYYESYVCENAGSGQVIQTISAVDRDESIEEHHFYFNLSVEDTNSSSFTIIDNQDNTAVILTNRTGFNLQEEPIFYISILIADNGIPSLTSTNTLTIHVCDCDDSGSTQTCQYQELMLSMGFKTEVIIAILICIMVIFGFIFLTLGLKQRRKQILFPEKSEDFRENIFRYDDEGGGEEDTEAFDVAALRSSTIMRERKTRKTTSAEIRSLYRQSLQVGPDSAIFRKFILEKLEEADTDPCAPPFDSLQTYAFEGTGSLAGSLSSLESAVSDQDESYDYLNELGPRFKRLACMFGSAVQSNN
Description: (§1) The following binding assay was completed in presence of 2 mM CaCl2. […] Cells were then washed one time and the amount of cell associated Alexa647-labelled Ab was quantitated by flow cytometry. The experiments included mock transfected controls.

The target of test [2] is T2, raCDH19(1-43)::FLAG::raCDH19(44-770), on 293T cells (rat).
T2 construct: Entry holds leader (1-43), Flag tag and CDH19 part; leader left out; also called Ra EC1-5
T2 chain: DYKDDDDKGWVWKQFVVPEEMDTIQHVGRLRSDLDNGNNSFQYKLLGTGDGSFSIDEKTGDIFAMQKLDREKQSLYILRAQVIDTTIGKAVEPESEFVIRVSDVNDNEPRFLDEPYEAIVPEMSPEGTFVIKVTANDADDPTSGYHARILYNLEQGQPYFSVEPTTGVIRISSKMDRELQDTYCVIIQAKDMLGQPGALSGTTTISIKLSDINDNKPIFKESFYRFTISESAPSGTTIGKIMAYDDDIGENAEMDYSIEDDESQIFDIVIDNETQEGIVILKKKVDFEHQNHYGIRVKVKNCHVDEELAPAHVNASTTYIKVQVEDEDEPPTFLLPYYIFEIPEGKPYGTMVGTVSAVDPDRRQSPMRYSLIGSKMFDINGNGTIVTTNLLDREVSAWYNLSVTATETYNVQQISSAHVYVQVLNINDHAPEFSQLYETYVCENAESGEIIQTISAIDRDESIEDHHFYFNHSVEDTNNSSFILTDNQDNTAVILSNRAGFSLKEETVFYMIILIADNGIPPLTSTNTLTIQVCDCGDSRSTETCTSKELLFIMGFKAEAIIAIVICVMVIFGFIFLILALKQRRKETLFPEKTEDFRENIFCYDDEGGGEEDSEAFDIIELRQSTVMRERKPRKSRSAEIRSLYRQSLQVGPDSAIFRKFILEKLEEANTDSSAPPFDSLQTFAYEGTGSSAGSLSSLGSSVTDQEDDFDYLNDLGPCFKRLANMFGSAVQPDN
Description: as §1

The target of test [3] is T3, muCDH19(44-770), Flag-tagged, on 293T cells (mouse).
T3 construct: also called Mu EC1-5
T3 chain: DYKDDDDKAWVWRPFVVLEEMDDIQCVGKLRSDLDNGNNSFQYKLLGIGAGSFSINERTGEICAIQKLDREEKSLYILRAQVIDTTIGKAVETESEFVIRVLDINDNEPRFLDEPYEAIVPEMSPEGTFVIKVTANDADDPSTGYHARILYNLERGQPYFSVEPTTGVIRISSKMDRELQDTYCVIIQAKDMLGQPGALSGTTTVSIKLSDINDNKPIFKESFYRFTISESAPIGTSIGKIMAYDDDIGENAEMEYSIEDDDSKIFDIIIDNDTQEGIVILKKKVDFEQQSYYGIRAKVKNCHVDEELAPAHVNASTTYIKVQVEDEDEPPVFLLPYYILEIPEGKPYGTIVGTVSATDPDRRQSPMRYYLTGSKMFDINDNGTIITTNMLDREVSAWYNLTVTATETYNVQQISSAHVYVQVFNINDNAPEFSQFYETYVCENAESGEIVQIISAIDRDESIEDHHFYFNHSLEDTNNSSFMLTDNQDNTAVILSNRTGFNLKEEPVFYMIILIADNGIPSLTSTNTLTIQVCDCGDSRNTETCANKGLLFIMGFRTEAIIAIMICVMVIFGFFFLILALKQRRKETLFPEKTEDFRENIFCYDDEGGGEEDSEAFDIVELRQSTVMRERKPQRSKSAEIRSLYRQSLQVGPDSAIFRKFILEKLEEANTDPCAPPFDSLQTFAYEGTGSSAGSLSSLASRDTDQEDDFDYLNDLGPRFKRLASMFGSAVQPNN

B1: hu anti-<huCDH19> 4A9 VH::huIgG1z / 4A9 VL::huLLC-C1 (Ab ID 13589) (antibody, V domains shown)
VH: QVQLQESGPGLVKPSETLSLTCTVSGGSISGYYWSWIRQPPGKGLEWFAYFSYSGSTNYNPSLKSRVTLSVDTSKNQFSLKLSSVTAADTAVYYCARNWAFHFDFWGQGTLVTVSS
VL: QSVLTQPPSVSGAPGQRVTISCTGSSSNIGTGYAVHWYQQFPGTAPKLLIYGNNNRPSGVPDRFSGSKSGTSASLAITGLQAEDEADYYCQSYDSRLSGWVFGGGTKLTVLG
notes: Recombinant fully human IgG1
Take B1: the binding result in test [1] was “binds”; in test [2], “no binding (tested: 5 ug/ml)”; in test [3], “no binding (tested: 5 ug/ml)”.

B2: hu anti-<huCDH19> 25F8.1 (1-469)(F90Y) VH::huIgG1z / 25F8.1 (1-235)(K45Q,S102A,D111E) VL::huLLC-C2 (Ab ID 14096) (antibody, V domains shown)
VH: QVQLVQSGAEVKKPGASVKVSCKASGYTFTSYYIHWVRQAPGQGLEWMGIINPSGGSTRYAQKFQGRVTMTRDTSTSTVYMELSSLRSEDTAVYYCARGGIQLWLHFDYWGQGTLVTVSS
VL: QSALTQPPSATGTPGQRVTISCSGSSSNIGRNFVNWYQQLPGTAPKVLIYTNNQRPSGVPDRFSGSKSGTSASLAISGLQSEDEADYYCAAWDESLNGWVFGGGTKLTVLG
notes: Engineered variant of 25F8
In the case of B2, the values for the binding result in test [1] and in test [2] were “binds” and “no binding (tested: 5 ug/ml)”, respectively.

B3: hu anti-<huCDH19> 26D1.1 VH::huIgG1z / 26D1.1 VL::huLLC-C2 (Ab ID 13882) (antibody, V domains shown)
VH: QVQLVQSGAEVKKPGASVKVSCKASRYTFTSYYMSWVRQAPGQGLEWMGIIHPSGGDTTYAQKFQGRVTMTGDTSTSTVYMELSSLRSEDTAVYYCARGGIKLWLHFDYWGQGTLVTVSS
VL: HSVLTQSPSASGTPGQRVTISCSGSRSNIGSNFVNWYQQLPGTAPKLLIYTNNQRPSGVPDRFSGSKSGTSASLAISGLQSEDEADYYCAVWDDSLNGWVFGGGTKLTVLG
For B3, the binding result in test [1] is given as “binds”; in test [2], “no binding (tested: 5 ug/ml)”; in test [3], “no binding (tested: 5 ug/ml)”.

B4: anti-CDH19 antibody 2G6 (Ab ID 13588) (antibody, human IgG1, lambda, V domains shown)
VH: QVQLVESGGGVVQPGRSLRLSCAASGFTFSSYGMHWVRQAPGKGLEWVAFIWYDGSNKYYADSVKDRFTISRDNSKNTLYLQMKSLRAEDTAVYYCARRAGIIGTIGYYYGMDVWGQGTTVTVSS
VL: SYELTQPPSVSVSPGQTASITCSGDRLGEKYTCWYQQRPGQSPLLVIYQDTKRPSGIPERFSGSNSGNTATLTISGTQAMDEADYYCQAWDSSTVVFGGGTKLTVLG
As to B4, the binding result in test [1], in test [2] and in test [3] was “binds” each time.

B5: hu anti-<huCDH19> 23A10.3 (1-474)(L92Q) VH::huIgG1z / 23A10.3 (1-231)(C42S) VL::huLLC-C2 (Ab ID 14077) (antibody, V domains shown)
VH: QVQLVESGGGVVQPGRSLRLSCAASGFTFSRYGIHWVRQAPGKGLEWVAVIWYDGSNKYYADSVKGRFTISRDNSKNTLYLQMNSLRAEDSAVYYCARRAGIPGTTGYYYGMDVWGQGTTVTVSS
VL: SYELTQPPSVSVSPGQTASITCSGDRLGEKYVSWYQQKPGQSPILVIYQDNKWPSGIPERFSGSNSGNTATLTISGTQAMDEADYYCQAWDSSTVVFGGGTKLTVLG
notes: Engineered variant of 23A10
As to B5, the binding result in test [1], in test [2] and in test [3] was “binds” in each case.

B6: anti-CDH19 antibody 4A2 (Ab ID 13592) (antibody, human IgG1, kappa, V domains shown)
VH: QVQLQESGPGLVKPSQTLSLTCTVSGGSISSSGYYWSWIRQHPGKGLEWIGYIYYTGSAYYNPSLKSRVTISVDTSKNQFSLKLSSVTAADTAVYYCARDGSSGWYFQYWGQGTLVTVSS
VL: EIVLTQSPGTLSLSPGERATLSCRASRNISSSYLAWYQQKPGQAPRLLIYGPSSRATGIPDRFSGSGSGTDFTLTISRLEPEDFTVYYCQQYGSSFTFGPGTKVDIKR
As to B6, the binding result in test [1] is “binds”.

B7: hu anti-<huCDH19> 4B10 VH::huIgG1z / 4B10 VL::huKLC (Ab ID 13590) (antibody, V domains shown)
VH: QVQLVESGGGVVQPGRSLRLSCAASGFTFSSYDMHWVRQAPGKGLEWVAVISYDGTNEYYADSVKGRFTISRDTSKNTLYLQMNSLRAEDTAVYYCARERYFDWSFDYWGQGTLVSVSS
VL: EIVLTQSPGTLSLSPGERATLSCRASQSVSNTYLAWYHQRPGQAPRLLIYGASSRATGIPDRFSGSGSGTDFALTISSLEPEDFAVYYCQQYSNSWTFGQGTKVEIKR
For B7, the binding result in test [1] was “binds”; in test [2], “binds”; in test [3] it was “no binding (tested: 5 ug/ml)”.
